Experimental data: patent US9988429B2, “Glucagon analogues” (Zealand Pharma A/S, priority 2013, dated 2018)
Starred links: 1 amine or outer side, 2 acyl side, 3 side chain; linkers in the order of their positions; H or OH if unused. Non-standard residues stand in square brackets, D forms with d. Groups on a side chain read outwards from the residue. *: point of attachment. γGlu = O=C(O)[C@H](CCC(=O)[*:2])N[*:1]; Palmitoyl = CCCCCCCCCCCCCCCC(=O)*; NMeS = CN[C@@H](CO)C(=O)O; Ac4c = NC1(C(=O)O)CCC1; Ac3c = NC1(C(=O)O)CC1; Aib = CC(C)(N)C(=O)O

B1: Compound 14: H-H-Ac4c-QGTFTSDYSKYLDE-K(Hexadecanoyl-isoGlu)-AAKDFIEWLESA-NH2 (peptide)
peptide: H-H[Ac4c]QGTFTSDYSKYLDEK([γGlu-Palmitoyl])AAKDFIEWLESA-NH2
SMILES: CCCCCCCCCCCCCCCC(=O)N[C@@H](CCC(=O)NCCCC[C@H](NC(=O)[C@H](CCC(=O)O)NC(=O)[C@H](CC(=O)O)NC(=O)[C@H](CC(C)C)NC(=O)[C@H](Cc1ccc(O)cc1)NC(=O)[C@H](CCCCN)NC(=O)[C@H](CO)NC(=O)[C@H](Cc1ccc(O)cc1)NC(=O)[C@H](CC(=O)O)NC(=O)[C@H](CO)NC(=O)[C@@H](NC(=O)[C@H](Cc1ccccc1)NC(=O)[C@@H](NC(=O)CNC(=O)[C@H](CCC(N)=O)NC(=O)C1(NC(=O)[C@@H](N)Cc2c[nH]cn2)CCC1)[C@@H](C)O)[C@@H](C)O)C(=O)N[C@@H](C)C(=O)N[C@@H](C)C(=O)N[C@@H](CCCCN)C(=O)N[C@@H](CC(=O)O)C(=O)N[C@@H](Cc1ccccc1)C(=O)N[C@H](C(=O)N[C@@H](CCC(=O)O)C(=O)N[C@@H](Cc1c[nH]c2ccccc12)C(=O)N[C@@H](CC(C)C)C(=O)N[C@@H](CCC(=O)O)C(=O)N[C@@H](CO)C(=O)N[C@@H](C)C(N)=O)[C@@H](C)CC)C(=O)O
B2: Compound 17: H-H-Aib-QGTFTSDYSKYLDE-K(Hexadecanoyl-isoGlu)-AAKDFIEWLEEE-NH2 (peptide)
peptide: H-H[Aib]QGTFTSDYSKYLDEK([γGlu-Palmitoyl])AAKDFIEWLEEE-NH2
SMILES: CCCCCCCCCCCCCCCC(=O)N[C@@H](CCC(=O)NCCCC[C@H](NC(=O)[C@H](CCC(=O)O)NC(=O)[C@H](CC(=O)O)NC(=O)[C@H](CC(C)C)NC(=O)[C@H](Cc1ccc(O)cc1)NC(=O)[C@H](CCCCN)NC(=O)[C@H](CO)NC(=O)[C@H](Cc1ccc(O)cc1)NC(=O)[C@H](CC(=O)O)NC(=O)[C@H](CO)NC(=O)[C@@H](NC(=O)[C@H](Cc1ccccc1)NC(=O)[C@@H](NC(=O)CNC(=O)[C@H](CCC(N)=O)NC(=O)C(C)(C)NC(=O)[C@@H](N)Cc1c[nH]cn1)[C@@H](C)O)[C@@H](C)O)C(=O)N[C@@H](C)C(=O)N[C@@H](C)C(=O)N[C@@H](CCCCN)C(=O)N[C@@H](CC(=O)O)C(=O)N[C@@H](Cc1ccccc1)C(=O)N[C@H](C(=O)N[C@@H](CCC(=O)O)C(=O)N[C@@H](Cc1c[nH]c2ccccc12)C(=O)N[C@@H](CC(C)C)C(=O)N[C@@H](CCC(=O)O)C(=O)N[C@@H](CCC(=O)O)C(=O)N[C@@H](CCC(=O)O)C(N)=O)[C@@H](C)CC)C(=O)O
B3: Compound 13: H-HPQGTFTSDYSKYLDE-K(Hexadecanoyl-isoGlu)-AAKDFIEWLESA-NH2 (peptide)
peptide: H-HPQGTFTSDYSKYLDEK([γGlu-Palmitoyl])AAKDFIEWLESA-NH2
SMILES: CCCCCCCCCCCCCCCC(=O)N[C@@H](CCC(=O)NCCCC[C@H](NC(=O)[C@H](CCC(=O)O)NC(=O)[C@H](CC(=O)O)NC(=O)[C@H](CC(C)C)NC(=O)[C@H](Cc1ccc(O)cc1)NC(=O)[C@H](CCCCN)NC(=O)[C@H](CO)NC(=O)[C@H](Cc1ccc(O)cc1)NC(=O)[C@H](CC(=O)O)NC(=O)[C@H](CO)NC(=O)[C@@H](NC(=O)[C@H](Cc1ccccc1)NC(=O)[C@@H](NC(=O)CNC(=O)[C@H](CCC(N)=O)NC(=O)[C@@H]1CCCN1C(=O)[C@@H](N)Cc1c[nH]cn1)[C@@H](C)O)[C@@H](C)O)C(=O)N[C@@H](C)C(=O)N[C@@H](C)C(=O)N[C@@H](CCCCN)C(=O)N[C@@H](CC(=O)O)C(=O)N[C@@H](Cc1ccccc1)C(=O)N[C@H](C(=O)N[C@@H](CCC(=O)O)C(=O)N[C@@H](Cc1c[nH]c2ccccc12)C(=O)N[C@@H](CC(C)C)C(=O)N[C@@H](CCC(=O)O)C(=O)N[C@@H](CO)C(=O)N[C@@H](C)C(N)=O)[C@@H](C)CC)C(=O)O
B4: Compound 2: H-H-NMeSer-QGTFTSDYSKYLDS-K(Hexadecanoyl-isoGlu)-AAHDFVEWLLSA-NH2 (peptide)
peptide: H-H[NMeS]QGTFTSDYSKYLDSK([γGlu-Palmitoyl])AAHDFVEWLLSA-NH2
SMILES: CCCCCCCCCCCCCCCC(=O)N[C@@H](CCC(=O)NCCCC[C@H](NC(=O)[C@H](CO)NC(=O)[C@H](CC(=O)O)NC(=O)[C@H](CC(C)C)NC(=O)[C@H](Cc1ccc(O)cc1)NC(=O)[C@H](CCCCN)NC(=O)[C@H](CO)NC(=O)[C@H](Cc1ccc(O)cc1)NC(=O)[C@H](CC(=O)O)NC(=O)[C@H](CO)NC(=O)[C@@H](NC(=O)[C@H](Cc1ccccc1)NC(=O)[C@@H](NC(=O)CNC(=O)[C@H](CCC(N)=O)NC(=O)[C@H](CO)N(C)C(=O)[C@@H](N)Cc1c[nH]cn1)[C@@H](C)O)[C@@H](C)O)C(=O)N[C@@H](C)C(=O)N[C@@H](C)C(=O)N[C@@H](Cc1c[nH]cn1)C(=O)N[C@@H](CC(=O)O)C(=O)N[C@@H](Cc1ccccc1)C(=O)N[C@H](C(=O)N[C@@H](CCC(=O)O)C(=O)N[C@@H](Cc1c[nH]c2ccccc12)C(=O)N[C@@H](CC(C)C)C(=O)N[C@@H](CC(C)C)C(=O)N[C@@H](CO)C(=O)N[C@@H](C)C(N)=O)C(C)C)C(=O)O
B5: Compound 9: H-H-Ac4c-HGTFTSDYSKYLDS-K(Hexadecanoyl-isoGlu)-AAHDFVEWLLSA-NH2 (peptide)
peptide: H-H[Ac4c]HGTFTSDYSKYLDSK([γGlu-Palmitoyl])AAHDFVEWLLSA-NH2
SMILES: CCCCCCCCCCCCCCCC(=O)N[C@@H](CCC(=O)NCCCC[C@H](NC(=O)[C@H](CO)NC(=O)[C@H](CC(=O)O)NC(=O)[C@H](CC(C)C)NC(=O)[C@H](Cc1ccc(O)cc1)NC(=O)[C@H](CCCCN)NC(=O)[C@H](CO)NC(=O)[C@H](Cc1ccc(O)cc1)NC(=O)[C@H](CC(=O)O)NC(=O)[C@H](CO)NC(=O)[C@@H](NC(=O)[C@H](Cc1ccccc1)NC(=O)[C@@H](NC(=O)CNC(=O)[C@H](Cc1c[nH]cn1)NC(=O)C1(NC(=O)[C@@H](N)Cc2c[nH]cn2)CCC1)[C@@H](C)O)[C@@H](C)O)C(=O)N[C@@H](C)C(=O)N[C@@H](C)C(=O)N[C@@H](Cc1c[nH]cn1)C(=O)N[C@@H](CC(=O)O)C(=O)N[C@@H](Cc1ccccc1)C(=O)N[C@H](C(=O)N[C@@H](CCC(=O)O)C(=O)N[C@@H](Cc1c[nH]c2ccccc12)C(=O)N[C@@H](CC(C)C)C(=O)N[C@@H](CC(C)C)C(=O)N[C@@H](CO)C(=O)N[C@@H](C)C(N)=O)C(C)C)C(=O)O
B6: Compound 10: H-H-Abu-QGTFTSDYSKYLDE-K(Hexadecanoyl-isoGlu)-AAKDFIEWLESA-NH2 (peptide)
peptide: HTQGTFTSDYSKYLDEKAAKDFIEWLESA
modifications: position 2 is Abu ((S)-2-aminobutyric acid); Lys17 side chain conjugated to hexadecanoyl-isoGlu; C-terminal amide (NH2)
B7: Compound 8: H-H-Ac3c-HGTFTSDYSKYLDS-K(Hexadecanoyl-isoGlu)-AAHDFVEWLLSA-NH2 (peptide)
peptide: H-H[Ac3c]HGTFTSDYSKYLDSK([γGlu-Palmitoyl])AAHDFVEWLLSA-NH2
SMILES: CCCCCCCCCCCCCCCC(=O)N[C@@H](CCC(=O)NCCCC[C@H](NC(=O)[C@H](CO)NC(=O)[C@H](CC(=O)O)NC(=O)[C@H](CC(C)C)NC(=O)[C@H](Cc1ccc(O)cc1)NC(=O)[C@H](CCCCN)NC(=O)[C@H](CO)NC(=O)[C@H](Cc1ccc(O)cc1)NC(=O)[C@H](CC(=O)O)NC(=O)[C@H](CO)NC(=O)[C@@H](NC(=O)[C@H](Cc1ccccc1)NC(=O)[C@@H](NC(=O)CNC(=O)[C@H](Cc1c[nH]cn1)NC(=O)C1(NC(=O)[C@@H](N)Cc2c[nH]cn2)CC1)[C@@H](C)O)[C@@H](C)O)C(=O)N[C@@H](C)C(=O)N[C@@H](C)C(=O)N[C@@H](Cc1c[nH]cn1)C(=O)N[C@@H](CC(=O)O)C(=O)N[C@@H](Cc1ccccc1)C(=O)N[C@H](C(=O)N[C@@H](CCC(=O)O)C(=O)N[C@@H](Cc1c[nH]c2ccccc12)C(=O)N[C@@H](CC(C)C)C(=O)N[C@@H](CC(C)C)C(=O)N[C@@H](CO)C(=O)N[C@@H](C)C(N)=O)C(C)C)C(=O)O

Experiments:
Assay in all cases: cell-based or functional assay
[1] = target: endogenous glucagon receptor of primary rat hepatocytes (rat, UniProt P30082 27-485)
endogenous glucagon receptor of primary rat hepatocytes, sequence (P30082 27-485): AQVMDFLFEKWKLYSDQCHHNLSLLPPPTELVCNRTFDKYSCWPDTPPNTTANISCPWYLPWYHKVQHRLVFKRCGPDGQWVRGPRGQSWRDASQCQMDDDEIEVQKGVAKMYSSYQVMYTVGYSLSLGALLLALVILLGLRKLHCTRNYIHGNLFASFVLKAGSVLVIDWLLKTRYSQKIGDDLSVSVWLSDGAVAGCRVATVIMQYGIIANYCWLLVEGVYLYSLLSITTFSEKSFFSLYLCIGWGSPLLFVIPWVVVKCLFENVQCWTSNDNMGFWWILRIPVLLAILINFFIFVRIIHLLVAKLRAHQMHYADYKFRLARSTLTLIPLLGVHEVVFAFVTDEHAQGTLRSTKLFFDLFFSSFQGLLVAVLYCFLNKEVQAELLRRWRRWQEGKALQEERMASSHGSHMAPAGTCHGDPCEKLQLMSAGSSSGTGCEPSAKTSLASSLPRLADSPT

[2] = target: T1, endogenous GLP-1 receptor of a murine insulinoma cell line (murine, UniProt O35659 22-463)
T1 sequence (looked up): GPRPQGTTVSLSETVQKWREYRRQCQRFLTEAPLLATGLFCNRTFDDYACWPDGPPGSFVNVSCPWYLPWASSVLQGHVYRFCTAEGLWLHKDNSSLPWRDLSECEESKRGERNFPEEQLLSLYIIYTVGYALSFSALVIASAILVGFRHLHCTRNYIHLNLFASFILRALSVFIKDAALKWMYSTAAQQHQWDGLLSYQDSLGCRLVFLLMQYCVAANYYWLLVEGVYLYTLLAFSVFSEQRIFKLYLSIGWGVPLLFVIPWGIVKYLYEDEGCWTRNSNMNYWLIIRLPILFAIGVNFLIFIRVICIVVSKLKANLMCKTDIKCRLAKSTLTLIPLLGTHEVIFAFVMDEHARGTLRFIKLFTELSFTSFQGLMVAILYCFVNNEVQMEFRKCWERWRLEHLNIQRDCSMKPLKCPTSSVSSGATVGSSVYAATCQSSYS

[3] = target: human glucagon-like peptide 1 receptor (GLP-1R) (human, UniProt P43220 24-463)
[4] = target: human glucagon receptor (Glucagon-R) (human, UniProt P47871 26-477)
human glucagon receptor (Glucagon-R), sequence (P47871 26-477): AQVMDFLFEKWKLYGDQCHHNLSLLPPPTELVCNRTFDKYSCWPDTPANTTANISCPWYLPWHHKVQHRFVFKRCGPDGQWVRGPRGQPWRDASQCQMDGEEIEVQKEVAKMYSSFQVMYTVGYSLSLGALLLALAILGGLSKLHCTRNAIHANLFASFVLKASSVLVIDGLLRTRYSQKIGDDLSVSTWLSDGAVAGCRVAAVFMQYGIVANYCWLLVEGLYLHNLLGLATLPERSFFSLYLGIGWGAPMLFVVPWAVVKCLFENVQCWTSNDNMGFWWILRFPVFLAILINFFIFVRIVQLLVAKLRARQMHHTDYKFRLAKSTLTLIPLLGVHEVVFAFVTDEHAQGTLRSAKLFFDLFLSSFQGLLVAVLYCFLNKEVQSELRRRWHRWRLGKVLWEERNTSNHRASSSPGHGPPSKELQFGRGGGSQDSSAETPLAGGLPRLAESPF

Binder | EC50 [nM] (inhibition of glycogen synthesis rate in primary rat hepatocytes) [1] | EC50 [nM] (cAMP in murine insulinoma cell line) [2] | EC50 hGLP-1R CHO-K1 [nM] (cAMP, AlphaScreen) [3] | EC50 hGCGR CHO-K1 [nM] (cAMP, AlphaScreen) [4]
B1 | 0.06 | 0.13 | 0.68 | 18.3
B2 | 2.26 | 0.21 | 0.27 | 0.08
B3 | 4 | 0.14 | 0.21 | 3.19
B4 | 5.4 | 0.52 | 0.92 | 0.24
B5 | 0.07 | 0.21 | 0.33 | 0.2
B6 | 2.75 | 0.09 | 0.27 | 0.1
B7 | 1.18 | 0.24 | 0.24 | 1.82
